Measured values as given in patent US20150274820A1 (ESBATECH AN ALCON BIOMEDICAL RESEARCH UNIT, published 2015).

Legend:
[1] = biological target: T1, recombinant human VEGF165 (human, UniProt P15692 27-191); test: Biacore SPR, VEGF immobilized, pH 5
T1 construct: mature; Isoform VEGF165 of the entry; also called hVEGF165; hVEGF
Experimental: In this example, the Biacore-binding ability of scFvs was tested and the binding affinity was measured using the exemplary surface plasmon resonance method with BIAcore™-T100. The VEGF proteins, tested for binding by these scFv candidates, in this example and later examples include purified Escherichia coli-expressed recombinant human VEGF₁₆₅ (PeproTech EC Ltd.), recombinant human VEGF₁₂₁ (PeproTech EC Ltd.), recombinant human VEGF₁₁₀ (ESBATech AG), recombinant murine VEGF₁₆₄ (PeproTech EC Ltd.), recombinant rat VEGF₁₆₄ (Biovision), recombinant rabbit VEGF₁₁₀ (ESBATech AG), and recombinant human PLGF (PeproTech EC Ltd.). For the surface plasmon resonance experiment, carboxymethylated dextran biosensor chips (CM4, GE Healthcare) were activated with N-ethyl-N′-(3-dimethylaminopropyl) carbodiimide hydrochloride and N-hydroxysuccinimide according to the supplier's instructions. Each of the 6 different VEGF forms, as exemplified above, was coupled to 1 of the 4 different flow cells on a CM4 sensor chip using a standard amine-coupling procedure. […] The 4th flow cell of each chip was treated similarly except no proteins were immobilized prior to blocking, and the flow cell was used as in-line reference. […] Dissociation of the anti-VEGF scFv from the VEGF on the CM4 chip was allowed to proceed for 10 min at 25° C. Sensorgrams were generated for each anti-VEGF scFv sample after in-line reference cell correction followed by buffer sample subtraction. The apparent dissociation rate constant (kd), the apparent association rate constant (kₐ) and the apparent dissociation equilibrium constant (KD) were calculated using one-to-one Langmuir binding model with BIAcore T100 evaluation Software version 1.1. […]

[2] = biological target: T1, recombinant human VEGF165; test: Biacore SPR, VEGF immobilized, pH 5; remark: listed apart in the source
Experimental: (§1) In this example, the Biacore-binding ability of scFvs was tested and the binding affinity was measured using the exemplary surface plasmon resonance method with BIAcore™-T100. The VEGF proteins, tested for binding by these scFv candidates, in this example and later examples include purified Escherichia coli-expressed recombinant human VEGF₁₆₅ (PeproTech EC Ltd.), recombinant human VEGF₁₂₁ (PeproTech EC Ltd.), recombinant human VEGF₁₁₀ (ESBATech AG), recombinant murine VEGF₁₆₄ (PeproTech EC Ltd.), recombinant rat VEGF₁₆₄ (Biovision), recombinant rabbit VEGF₁₁₀ (ESBATech AG), and recombinant human PLGF (PeproTech EC Ltd.). For the surface plasmon resonance experiment, carboxymethylated dextran biosensor chips (CM4, GE Healthcare) were activated with N-ethyl-N′-(3-dimethylaminopropyl) carbodiimide hydrochloride and N-hydroxysuccinimide according to the supplier's instructions. Each of the 6 different VEGF forms, as exemplified above, was coupled to 1 of the 4 different flow cells on a CM4 sensor chip using a standard amine-coupling procedure. […] The 4th flow cell of each chip was treated similarly except no proteins were immobilized prior to blocking, and the flow cell was used as in-line reference. […] Dissociation of the anti-VEGF scFv from the VEGF on the CM4 chip was allowed to proceed for 10 min at 25° C. Sensorgrams were generated for each anti-VEGF scFv sample after in-line reference cell correction followed by buffer sample subtraction. The apparent dissociation rate constant (kd), the apparent association rate constant (kₐ) and the apparent dissociation equilibrium constant (KD) were calculated using one-to-one Langmuir binding model with BIAcore T100 evaluation Software version 1.1.

[3] = biological target: T1, recombinant human VEGF165; test: Biacore SPR, VEGF immobilized, pH 7.4
Experimental: as §1

T1 sequence (P15692 other isoform, or with tags, fused parts or gaps): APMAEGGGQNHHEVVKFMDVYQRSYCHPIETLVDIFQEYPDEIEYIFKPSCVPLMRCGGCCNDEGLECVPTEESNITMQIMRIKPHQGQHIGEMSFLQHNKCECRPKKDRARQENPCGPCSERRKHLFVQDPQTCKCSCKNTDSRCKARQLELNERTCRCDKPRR

Binder | Kd [1] [nM] | koff [1] [s⁻¹] | kon [1] [M⁻¹ s⁻¹] | koff [2] [s⁻¹] | kon [2] [M⁻¹ s⁻¹] | kon [3] [M⁻¹ s⁻¹] | koff [3] [s⁻¹]
578-max FW1.4_DHP (scFv, Tied by name only; also called Protein Nr; 960) scFv: EIVMTQSPSTLSASVGDRVIITCQASEIIHSWLAWYQQKPGKAPKLLIYLASTLASGVPSRFSGSGSGTQFTLTISSLQPDDFATYYCQNVYLASTNGANFGQGTKLTVLGGGGGSGGGGSGGGGSGGGGSEVQLVESGGGSVQPGGSLRLSCTASGFSLTDYYYMTWVRQAPGKGLEWVGFIDPDDDPYYATWAKGRFTISRDTSKNTVYLQMNSLRAEDTATYYCAGGDHNSGWGLDIWGQGTTVTVSS | 0.266 | 0.000248 | 930000 | – | – | – | –
578-max-min (scFv, also called Protein Nr; 902) scFv: EIVMTQSPSTLSASVGDRVIITCQASEIIHSWLAWYQQKPGKAPKLLIYLASTLASGVPSRFSGSGSGTQFTLTISSLQPDDFATYYCQNVYLASTNGANFGQGTKLTVLGGGGGSGGGGSGGGGSGGGGSEVQLVESGGGLVQPGGSLRLSCAASGFSLTDYYYMTWVRQAPGKGLEWVSFIDPDDDPYYATWAKGRFTISRDNSKNTLYLQMNSLRAEDTAVYYCAKGDHNSGWGLDIWGQGTLVTVSS | 6.55 | 0.00883 | 1.35e+06 | – | – | – | –
578min_max T84N (scFv, the VH entry already carries T84N; tied by name; also called Protein Nr) scFv: EIVMTQSPSTLSASVGDRVIITCQASEIIHSWLAWYQQKPGKAPKLLIYLASTLASGVPSRFSGSGSGAEFTLTISSLQPDDFATYYCQNVYLASTNGANFGQGTKLTVLGGGGGSGGGGSGGGGSGGGGSEVQLVESGGGLVQPGGSLRLSCTASGFSLTDYYYMTWVRQAPGKGLEWVGFIDPDDDPYYATWAKGRFTISRDNSKNTVYLQMNSLRAEDTAVYYCAGGDHNSGWGLDIWGQGTLVTVSS | 0.971 | 0.0007 | 721000 | – | – | – | –
578min_max T84N_V89A (scFv, the VH entry already carries the changes; tied by name; also called Protein Nr; 1009) scFv: EIVMTQSPSTLSASVGDRVIITCQASEIIHSWLAWYQQKPGKAPKLLIYLASTLASGVPSRFSGSGSGAEFTLTISSLQPDDFATYYCQNVYLASTNGANFGQGTKLTVLGGGGGSGGGGSGGGGSGGGGSEVQLVESGGGLVQPGGSLRLSCTASGFSLTDYYYMTWVRQAPGKGLEWVGFIDPDDDPYYATWAKGRFTISRDNSKNTAYLQMNSLRAEDTAVYYCAGGDHNSGWGLDIWGQGTLVTVSS | 0.615 | 0.000493 | 801000 | – | – | – | –
578min_max V89A (scFv, the VH entry already carries V89A; tied by name; also called Protein Nr; 978) scFv: EIVMTQSPSTLSASVGDRVIITCQASEIIHSWLAWYQQKPGKAPKLLIYLASTLASGVPSRFSGSGSGAEFTLTISSLQPDDFATYYCQNVYLASTNGANFGQGTKLTVLGGGGGSGGGGSGGGGSGGGGSEVQLVESGGGLVQPGGSLRLSCTASGFSLTDYYYMTWVRQAPGKGLEWVGFIDPDDDPYYATWAKGRFTISRDTSKNTAYLQMNSLRAEDTAVYYCAGGDHNSGWGLDIWGQGTLVTVSS | 1.2 | 0.000612 | 509000 | – | – | – | –
578min_max V89L (scFv, the VH entry already carries V89L; tied by name; also called Protein Nr; 980) scFv: EIVMTQSPSTLSASVGDRVIITCQASEIIHSWLAWYQQKPGKAPKLLIYLASTLASGVPSRFSGSGSGAEFTLTISSLQPDDFATYYCQNVYLASTNGANFGQGTKLTVLGGGGGSGGGGSGGGGSGGGGSEVQLVESGGGLVQPGGSLRLSCTASGFSLTDYYYMTWVRQAPGKGLEWVGFIDPDDDPYYATWAKGRFTISRDTSKNTLYLQMNSLRAEDTAVYYCAGGDHNSGWGLDIWGQGTLVTVSS | 2.13 | 0.00187 | 875000 | – | – | – | –
511max_min (scFv, also called Protein Nr; 905) scFv: EIVMTQSPSTLSASVGDRVIITCQASQSINIWLSWYQQKPGKAPKLLIYRASTLASGVPSRFSGSGSGTEFTLTISSLQPDDFATYYCQANYAYSAGYGAAFGQGTKLTVLGGGGGSGGGGSGGGGSGGGGSEVQLVESGGGLVQPGGSLRLSCAASGFSLNTYYMNWVRQAPGKGLEWVSIIAPDDTTYYASWAKSRFTISRDNSKNTLYLQMNSLRAEDTAVYYCAKSGDTTAWGADIWGQGTLVTVSS | 1.48 | 0.000754 | 511000 | – | – | – | –
511min_max (scFv, also called Protein Nr; 904) scFv: EIVMTQSPSTLSASVGDRVIITCQASQSINIWCSWYQQKPGKAPKLLIYRASTLASGVPSRFSGSGSGAEFTLTISSLQPDDFATYYCQANYAYSAGYGAAFGQGTKLTVLGGGGGSGGGGSGGGGSGGGGSEVQLVESGGGLVQPGGSLRLSCTVSGFSLNTYYMNWVRQAPGKGLEWVGIIAPDDTTYYASWAKSRSTISRDTSKNTVYLQMNSLRAEDTAVYYCARSGDTTAWGADIWGQGTLVTVSS | 0.278 | 0.000102 | 366000 | – | – | – | –
534-min C-His (scFv, VL and VH tied by name; His tag only named (C-His); also called Protein Nr; 807; not shown: C-terminal His tag) scFv: EIVMTQSPSTLSASVGDRVIITCQASQSINIWLSWYQQKPGKAPKLLIYKESTLASGVPSRFSGSGSGAEFTLTISSLQPDDFATYYCQNNYDSGNNGFPFGQGTKLTVLGGGGGSGGGGSGGGGSGGGGSEVQLVESGGGLVQPGGSLRLSCAASGFSLSYYYMSWVRQAPGKGLEWVSIIGPGDYTDYASWAKGRFTISRDNSKNTLYLQMNSLRAEDTAVYYCAKGDDNSGWGEDIWGQGTLVTVSS | – | – | – | 0.00921 | 271000 | – | –
610-min (scFv, VL and VH tied by name; also called Protein Nr) scFv: EIVMTQSPSTLSASVGDRVIITCQASQSISSWLSWYQQKPGKAPKLLIYQASTLASGVPSRFSGSGSGAEFTLTISSLQPDDFATYYCQNNYGFRSYGGAFGQGTKLTVLGGGGGSGGGGSGGGGSGGGGSEVQLVESGGGLVQPGGSLRLSCAASGIDFSGAYYMGWVRQAPGKGLEWVSYIDYDGDRYYASWAKGRFTISRDNSKNTLYLQMNSLRAEDTAVYYCAKSDYSSGWGTDIWGQGTLVTVSS | – | – | – | 0.00265 | 251000 | – | –
610-max (scFv, VL and VH tied by name; also called Protein Nr) scFv: EIVMTQSPSTLSASVGDRVIITCQASQSISSWLSWYQQKPGKAPKLLIYQASTLASGVPSRFSGSGSGTEFTLTISSLQPDDFATYYCQNNYGFRSYGGAFGQGTKLTVLGGGGGSGGGGSGGGGSGGGGSEVQLVESGGGLVQPGGSLRLSCTASGIDFSGAYYMGWVRQAPGKGLEWVGYIDYDGDRYYASWAKGRFTISKDTSKNTVYLQMNSLRAEDTAVYYCARSDYSSGWGTDIWGQGTLVTVSS | – | – | – | 0.000601 | 509000 | > 1e+08 | –
435-min (scFv, VL and VH tied by name; also called Protein Nr; 944) scFv: EIVMTQSPSTLSASVGDRVIITCQASQSIGSSLAWYQQKPGKAPKLLIYTAANLASGVPSRFSGSGSGAEFTLTISSLQPDDFATYYCQNFATSDTVTFGQGTKLTVLGGGGGSGGGGSGGGGSGGGGSEVQLVESGGGLVQPGGSLRLSCAASGFSLNTNYWMCWVRQAPGKGLEWVSCMYTGSYNRAYYASWAKGRFTISRDNSKNTLYLQMNSLRAEDTAVYYCAKGSNWYSDLWGQGTLVTVSS | – | – | – | – | – | 495000 | 0.0143
375-min (scFv, VL and VH tied by name; also called Protein Nr; 857) scFv: EIVMTQSPSTLSASVGDRVIITCQASENINIWLSWYQQKPGKAPKLLIYQASKLASGVPSRFSGSGSGAEFTLTISSLQPDDFATYYCQNNYSYNRYGAPFGQGTKLTVLGGGGGSGGGGSGGGGSGGGGSEVQLVESGGGLVQPGGSLRLSCAASGFSFTTTDYMCWVRQAPGKGLEWVSCILAGDGSTYYANWAKGRFTISRDNSKNTLYLQMNSLRAEDTAVYYCAKSDPASSWSFALWGQGTLVTVSS | – | – | – | 0.00501 | 927000 | > 1e+08 | –
375-max (scFv, VL and VH tied by name; also called Protein Nr; 873) scFv: EIVMTQSPSTLSASVGDRVIITCQASENINIWLSWYQQKPGKAPKLLIYQASKLASGVPSRFSGSGSGTQFTLTISSLQPDDFATYYCQNNYSYNRYGAPFGQGTKLTVLGGGGGSGGGGSGGGGSGGGGSEVQLVESGGGLVQPGGSLRLSCKASGFSFTTTDYMCWVRQAPGKGLEWVGCILAGDGSTYYANWAKGRFTGSKDTSKNTVYLQMNSLRAEDTAVYYCARSDPASSWSFALWGQGTLVTVSS | – | – | – | 0.00655 | 2.44e+06 | 5.09e+07 | 0.242
